B1: GST‐BmVreteno‐L (natural protein, Bombyx mori)
chain: MSNHSRPQRRREWDPMRDDFNEHTYDVQYADDNAGEQVQLDHTKLYIINIPRGLSEDGIRAAFSKHGKVLSARLSKNPNKRFAIVQFETASEAKLAMMKMNGSEPLNLKISIAHKTIRKTQHDNKDRNYSTSRNGHCSRDEASSISSKGWNMRNLDDVMNNDEIDEIDDMIHEDHDDNLDLELDMLTLKQLKIKEEQLMCKRRLLLRHAEKRQVAPHSSAGRSVLPDGRIVVRNNANETDSAEVEPSFAGAGSESLKTPGLERNASRQCVKCGAPADWYCSRCAITPYCSQTCQTRDWTERHKSVCHYLAPLKTAGGFEAEATSSKSVSNSTPMRSSHSPPTKQQRGEADETDNKAKNIQEPRQNYHRPSNSGPNKNIPGKNQDPRRPATSREAIEEETEERGARNPKPAEATKDKHHPMNPVTFQRRQLKSNPVVDAQPAPREQQQPAATRAPEASPTEQRESTRRTLVPDRCLIDSLSEGDVVLVSVELKASECCTKQGGYVCLSMHEKYESDYQKLCEDYVLDCEADSDEYKIITGDTFSYLSPEDGGWYRARALNTTMAALLDGSKVVYLRMNDKVKKLPAKYSGIPEFCCVLNADVEVGLNLKCSLLSKTPNGFKVTLENVETEANVGEGEITRWIPEVDYPPPVKNVPVQRSVEIPEVPRPEIKNKSRVILVDATDVQRVFVRPADTRSQKAFDNILQDVLLYGTTAEPLKEPPSKGQTVVSKYTDNLHYRALCKRTSVNKNKYLLEYIEYGNIEITQLNRLYPCPEHLSVTSLASLTSHVQLDTTVGELTPRALEYIETIKEEEMILTLSSGGDTAQSGAALVNLTLVKNNDNVNKRIEELCTPEWKKLELKGVDVIETERLMYGTALDYIELPAAPFDLQVLDEVGLDSGNISGCPTNSDYVRYVMTKLPARMREYCESEFGRQPYLPAAEELCIAQLPPSSEWHRAVVLEQILGPGGGTARVLFVDHGNVAEVPVSSLRKMLAEFVTDLPAVACQIVIEDFPKQATAEMLAKARRFMSGPDKARAAQLPVRGCDKQDVGIYAIRVPELLEAMTE
notes: BmVreteno Long isoform, Bombyx mori; pGEX-6p vector, 3C site between GST and BmVreteno; the purified protein was associated with nucleic acids; also called GST‐3C‐BmVreteno; full‐length BmVreteno‐L; source: E. coli BL21 DE3 codon+, purified (GSTrap, gel filtration); not shown: GST, N-terminal, kept

How the values were obtained:
[1] = biological target: the molecule itself; assay: SEC; gel filtration of purified GST-BmVreteno-L and -S (Superdex 75 and 200 16/60 pg, 25 mM Na-Hepes, 300 mM NaCl, 10% glycerol, pH 7.4); protein associated with nucleic acids
GST‐BmVreteno‐L = biological target: B1; assay: pull-down; GSH pull-down: 5 μM GST-BmVreteno (or fragment, variant) on Glutathione Sepharose 4B with 10 μM His-BmGtsf1L, 2 h 4°C, PBS with 0.1% Triton-X100; SDS-PAGE, Coomassie (Fig 5G also anti-His Western blot); conditions: both partners purified

binding result (GST‐BmVreteno‐L)	Binder	binding result [1]
	B1	binds
binds	His‐BmGtsf1L (natural protein, Bombyx mori, BmGtsf1L, Bombyx mori; pET28a, thrombin site after the His6 tag; also called His6‐thrombin‐BmGtsf1L; recombinant BmGtsf1L; source: E. coli BL21 DE3 codon+, purified (HisTrap, gel filtration); not shown: His6, N-terminal, kept) MDDPFVSCPYNPIHRVPRSRLQRHIVKCEWINPTMIACPYNATHRYTQEDMKFHVLNCPSKTSIFPIEKPPKTVASITTPKIILQKEYLPETDPNHEIWDD	

— publication PMC10711660, “An extended Tudor domain within Vreteno interconnects Gtsf1L and Ago3 for piRNA biogenesis in Bombyx mori” (The EMBO Journal, 2023)
